Assay: yeast display, Sf9 membrane polyspecificity reagent, FACS + sequencing; frameworks hold sequencing errors
In short: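 Polyreactivity labels are assigned by the sorting gate from which each nanobody was recovered. The gates were low and high (top ~1%), set on anti-HA fluorescence for expression and streptavidin fluorescence for reagent binding. Before sorting, galactose-induced (36–48 hours) yeast display cells were stained for 1 hour at 4 °C with 10% biotinylated, detergent-solubilized Sf9 membrane reagent.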

QVQLVESGGGLVQAGGSLRLSCAASGNIFDSNAMGWYRQAPGKERELVAAITWSGGSTYYADSVKGRFTISRDNAKNTVYLQMNSLKPEDTAVYYCNAVRQQRNVPGGQYEFDYWGQGTQVTVSS
polyreactivity (PSR sort gate): high polyreactivity

QVQLVESGGGLVQAGGSLRLSCAASGRNYVYNAMGRYRQAPGKETELVAAITSSGGSTYYADSVKGRFTISRDNAKNSVDLQMNSLKPEDTAVYYCAADVQPDTRSTPEMDYWGQGTQVTVSS
polyreactivity (PSR sort gate): low polyreactivity

QVQLEESGGGLVQAGGRLRLSSAASGRTFMPNGMGWYRQAPGKERELVAAISWRGGSTYYADSVKGRFTISRDNAKNTVYLQMNSLKPEDTAVYYCNARVSRQYDYWGQGTEVTVSS
polyreactivity (PSR sort gate): low polyreactivity

QVQLVESGGGLVQAGGSLRLSCASSGSTFWVNVMGWYRQAPGKERELVATITSGGRTNYADSVKGRFTISRDNAKNTVYLQMNCLKPEDTAVYYCAADLKRGYLMDYWGQGTQVTVSS
polyreactivity (PSR sort gate): low polyreactivity

QVQLVESGGGLVQAGGSLRLSCAASGGTCSFYTMGWYRQAPGKERELVAAISRSGGRTYYADSVKGRFTISRDNAQNTVYLQMNSLKPEDTAVYYCAAERFSNIYTTMGYWGQGTQVTVSS
polyreactivity (PSR sort gate): high polyreactivity

QVQLVESGGGLVQAGGSHRLSCAASGRIIHGYAMGWYRQAPGKERELVARISFSGGRTYYADSVKGRFTISRDNAKNTVYLQKNSLIPEDTAVYYCNVRVWSYYYPGRDSDYWGQGTQVTVSS
polyreactivity (PSR sort gate): high polyreactivity

QVQLVESGLGLVQAAGSLRLSCAASGSILYSYAMGWYRQAPGKERELFAAITGAGASTNYADSVKGRFTISRDNGKNTVYLQMNSLKPEDTAVYYCNAEYNPYHYYKAWVYTYDYGYWGQGTQVTVSS
polyreactivity (PSR sort gate): low polyreactivity

QVQLVESGGGLVQAGCSLRLSCSASGRIYYAMGWYRQADGKERELVATITRSGGRTYYADSVKGRFTISRDNAKITVYLQINSLKPEDTAVYYCAKQFGRPYVGSNSYCLTYDSWGEGTQVTVSS
polyreactivity (PSR sort gate): low polyreactivity

QVQLVESGGGLVQAGGSLRLSCAASGSTFSDYAMGWYRQAPGKERELVAAISSSGGRTYYADSVKGRFTISRDNAKNTVYLQMNSLKPEDTAVYYCNAYYIYILYGGQTYTGDYWGQGTQVTVSS
polyreactivity (PSR sort gate): high polyreactivity

QVQLVESGGGLVQAGGSLRLSCAASGFTFGGNAMGWYRQAPGKERELVADITWSGGSTYYADSVKGRFTISRDNAKNTVYLQMNSLKPEDTAVYYCNTVRYPSSNSGLDYWGQGTQVTVSS
polyreactivity (PSR sort gate): high polyreactivity

QVQLVESGGGLVQAGGSLRLSCAASGFTFDPDAMGWYRQAPGKERELVASITWSGDNTYYADSVKGRFSISRDNAKTTVYLQMNSLKPEDTAVYYCNVEWAWWSTRYDSWGQGTQVTVSS
polyreactivity (PSR sort gate): high polyreactivity

QVQLVESGGGLVQAGGSLRLSCAASGSTFYKNAMGWYIQAPGKERELVAAISGSGGRTYYADSVKGRFTISRDTAKNTVYLQMNSLKPEDTAVYYCNAARAYYSLYYGLDYWGQGTQVTVSS
polyreactivity (PSR sort gate): high polyreactivity

QVQLVESGGGLVQAGGSLRLSCAASGLIFRAYAMGWYRQAPGKERELVAAISRRGGSTYYADSVKGRFTISRDNANNTVYLQMNSLKPEDSAVYYCNKDSRSWPFKYDYWGQGTQVTVSS
polyreactivity (PSR sort gate): high polyreactivity

QVQLVESGGGLVQAGGSLRLSCAASGSTFHFYAMGWYRQAHGKERELVASITSRGGNTHYADSVKGRFTISRDNAKNTVYFQMNSLKPEDTAVYYCAARKGTSWKAHFRFDYWGQGTQVTVSS
polyreactivity (PSR sort gate): low polyreactivity

QVQLVESGGGLVQAGGSLRLSSAASGFTFNANAMGWYRQAPGKERELVAVITRSGGRTYYADSVKGRFTISRDNAKNTVYLQMNSLKPEDTAVYYCAADIGYTYEYYYWGQGTQVTVSS
polyreactivity (PSR sort gate): high polyreactivity

QVQLVESGGGLVQAGGSLRLSCAASGSTIDTYAMGWYRLAPGKERELVAGISWSGGSTFYADSVKGRFTFSRDNAKNTVDLHMNSLKPEDTAVYYCAKQLWVGVKYDYWGQGTQVTVSS
polyreactivity (PSR sort gate): low polyreactivity

QVQLVESGGGLVQAGGSLRLSCAASGGIFPAYAMGWYRQAPGKERELVAAITSSGASTYADSVKGRFTISRDNAKNTVYLQMNSLKPEDTAVYYCNADDTTVILEMDYWGQGTQVTVSS
polyreactivity (PSR sort gate): low polyreactivity

QVQLVESGGGLVQAGGSLRLSCAASGRTFVYYAMGWYRQAPGKERELVAAITFSGGSTYYADSVKGRFTISRDNAKNTVYLQMNSLKPEDTAVYYCAAQYRYSYPLGDYWGQGTQVTVSS
polyreactivity (PSR sort gate): low polyreactivity

QVQHVESGGGLVQAGGSLRLSCAASGRIFLHNAMGWYRQAPGKERELVAAITGGGSTYYADSVKGRFTISRDNAKNTVYLQMNSLKPEDTAVYYCATLGSLRYYWPGYDYWGQGTQVTVSS
polyreactivity (PSR sort gate): low polyreactivity

QVQLVESGGGLVQAGGSLRLSCAASGRTLTQNAMGWYRQAPGKERELVATISWTAGSTYYADSVKGRFTISRDNAKNTVYLQMNSLKPEDTAVYYCAADVFYSIYDYWGQGTQVTVSS
polyreactivity (PSR sort gate): low polyreactivity

QVQLVESGGGLVQAGGSLRLSCAASVYTFPSYVMGWYRQAPGKERELVAAISSGSRTYYADSVKGRFTISRDNAKNTVYLQMNSLKPEDTAVYYCNARGFPGKFGYWGPGTQVTVSS
polyreactivity (PSR sort gate): high polyreactivity

QVQLVESGGGLVQAGGSLRLSCAASGRTFPSYAMGWYRQAPGKERELVAAITRGGSTNYADSVKGRFTISRDNAKNTVYLQMNSLKPEDTAVYYCAAARWRWQLARDDYWGQGTQVTVSS
polyreactivity (PSR sort gate): high polyreactivity

QVQLVESGGGLVQAGGSLSLSCAASGSILVGYAMGWYRQAPGKERELVARISTSGGSTTYYADSVKGRFTISRDNAKNTVYLQMNSLKPEDTAVYYCAADYKPYYRRRYDYWGQGTQVTVSS
polyreactivity (PSR sort gate): low polyreactivity

QVQLVESGGGLVQAGGSLRLSCAASGYTFIVNAMGWYRQAPGKERELVAAITSGGGTYYADSVKGRFTISRDNAKNTVYLQMNCLKPEDTAVYYCAARSGYRYVESDYWGQGTQVTVSS
polyreactivity (PSR sort gate): high polyreactivity

QVQLVESGGGLVQAGGSLRLSCAASGFIFGWNAMGWYRQAPGKEREFVAAITSSGTSTYYADSVKGRFTISRDNAKNTVYLQMNSLKPEDTAVYYCAADVIFNWLAYSTEYDYWGQGTQVTVSS
polyreactivity (PSR sort gate): low polyreactivity

QVQLVESGGGLVQAGGSLRLSCAASGGTFKTYAMGWYRQAPGKERELVAAITSSSSRTHYADSVKGRFTISRDNAKYTVYLQMNSLKPEVTAVYYCAAAIPSYTRTGYWGQGTQVTVSS
polyreactivity (PSR sort gate): high polyreactivity

QVQLVESGGGLVQAGGSLRLSCAASGYIFVKNAMGWYRQEPGKERELVAAISSSGGSTYYADSVKGRFTISRDNAKNTVYLQMNSLKPEDTAVYYCNVYGSYTSVSRQSDWWPDYGYWGQGTQVTVSS
polyreactivity (PSR sort gate): low polyreactivity

QVQLVESGGGLVQAVGSLRLSCAASGFTFERNAMGWYRQAPGKARELVATINGSSDSTYYADSVKGRFTISRDKAKNTVYLQMNSLKPEDTAVYYCNADSITEGNSRYSHFDYWGQGTQVTVSS
polyreactivity (PSR sort gate): low polyreactivity

QVQLVESGGGLVQAGGSLRLSCAASGSTFPYYAMGWYRQAPGKERELVAAITSGGSTYYADSVKGRFTISRDNAKNTVYLQMNSLKPEDTAVYYCAARYAPTLSVYRFYYWGQGTQVTVSS
polyreactivity (PSR sort gate): high polyreactivity

QVQLVESVGGLVQAGGSLRLSCAASGRIFKWYAMGWYRQAPGKERELVAAITSGGGSTYYADSVKGRFTISRDNAKNTVYLQINSLKPEDTAVYYCNAKAPAEIRSYLRTSRYDYWGQGTQVTVSS
polyreactivity (PSR sort gate): high polyreactivity

QVQLVESGGGLVQAGGSLRLSCAASGFIFGRNAMGWYRQAPGKERELVAGISSRGGRTYYADSVKGRFTISRDNAKNTVYLQMNSLKPEDTAVYYCAAAGLTDYVRYDYWGQGTQVTVSS
polyreactivity (PSR sort gate): high polyreactivity
